From patent publication US20080253962A1 (Bristol-Myers Squibb, published 2008)

Tests used:
[1] = molecular target: T1, IRTA3, full length transmembrane form with N-terminal myc tag, expressed on transfected CHO cells (human, UniProt Q96P31 18-734); experiment: flow cytometry on transfected CHO cells, GMFI
T1 construct: Full length cDNA in CHO cells; also called human IRTA-3; not shown: myc tag at the N-terminus
T1 sequence: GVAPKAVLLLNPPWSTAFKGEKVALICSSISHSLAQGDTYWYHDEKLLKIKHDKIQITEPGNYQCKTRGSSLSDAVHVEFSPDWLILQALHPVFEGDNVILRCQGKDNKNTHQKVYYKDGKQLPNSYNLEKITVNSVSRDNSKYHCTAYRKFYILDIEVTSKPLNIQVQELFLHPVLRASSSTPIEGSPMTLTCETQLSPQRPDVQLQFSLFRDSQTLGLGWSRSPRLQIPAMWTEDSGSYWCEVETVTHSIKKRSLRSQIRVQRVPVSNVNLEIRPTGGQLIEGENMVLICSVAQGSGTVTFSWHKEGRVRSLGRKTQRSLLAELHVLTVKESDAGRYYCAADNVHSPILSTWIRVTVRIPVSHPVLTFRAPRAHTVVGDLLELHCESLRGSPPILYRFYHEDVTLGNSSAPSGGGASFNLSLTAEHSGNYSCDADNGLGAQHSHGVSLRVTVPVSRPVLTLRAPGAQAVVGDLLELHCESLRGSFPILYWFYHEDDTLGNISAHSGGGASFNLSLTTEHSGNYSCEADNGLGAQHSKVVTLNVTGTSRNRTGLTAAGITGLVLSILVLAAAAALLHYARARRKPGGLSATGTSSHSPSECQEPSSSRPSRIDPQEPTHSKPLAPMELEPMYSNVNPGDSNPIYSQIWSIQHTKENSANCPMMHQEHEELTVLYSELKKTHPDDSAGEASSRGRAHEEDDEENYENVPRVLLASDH
Description: (§1) Chinese hamster ovary (CHO) cell lines that express one of each of the five IRTA proteins at the cell surface were developed and used to determine the specificity of the IRTA4 monoclonal antibodies by flow cytometry. CHO cells were transfected with expression plasmids containing full length cDNA encoding transmembrane forms of IRTA1, IRTA2, IRTA3, IRTA4, or IRTA5. In addition, the transfected proteins contained a myc tag at the N-terminus for detection by anti-myc antibody. Binding of the two anti-IRTA4 monoclonal antibodies was assessed by incubating the transfected cells with each of the IRTA4 Abs at a concentration of 10 μg/ml. The cells were washed and binding was detected with a FITC-labeled anti-human IgG Ab. A murine anti-myc Ab followed by labeled anti-murine IgG was used as the positive control. Secondary antibody alone was used as a negative control. The results are depicted in FIG. 7. The IRTA4 monoclonal antibodies 9G11 and 13B1 bound to the CHO line transfected with IRTA4 but not to CHO lines expressing IRTA1, 2, 3 or 5 as measured by the mean fluorescent intensity (MFI) of staining.

[2] = molecular target: T2, IRTA5, full length transmembrane form with N-terminal myc tag, expressed on transfected CHO cells (human, UniProt Q96LA6 17-429); experiment: flow cytometry on transfected CHO cells, GMFI
T2 construct: Full length cDNA in CHO cells; also called human IRTA-5; not shown: myc tag at the N-terminus
T2 sequence: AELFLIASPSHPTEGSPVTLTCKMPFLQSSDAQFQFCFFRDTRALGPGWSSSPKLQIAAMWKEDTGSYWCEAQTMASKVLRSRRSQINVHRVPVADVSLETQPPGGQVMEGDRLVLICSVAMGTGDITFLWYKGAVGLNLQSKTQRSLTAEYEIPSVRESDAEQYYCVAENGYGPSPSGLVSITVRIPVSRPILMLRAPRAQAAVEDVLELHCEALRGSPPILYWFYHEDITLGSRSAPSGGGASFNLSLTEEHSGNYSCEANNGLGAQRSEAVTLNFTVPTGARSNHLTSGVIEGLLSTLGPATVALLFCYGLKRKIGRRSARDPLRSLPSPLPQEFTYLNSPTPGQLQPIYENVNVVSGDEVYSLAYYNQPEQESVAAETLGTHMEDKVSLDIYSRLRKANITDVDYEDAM
Description: as §1

[3] = molecular target: T3, IRTA1, full length transmembrane form with N-terminal myc tag, expressed on transfected CHO cells (human, UniProt Q96PJ5 20-515); experiment: flow cytometry on transfected CHO cells, GMFI
T3 construct: Full length cDNA in CHO cells; also called human IRTA-1; not shown: myc tag at the N-terminus
T3 sequence: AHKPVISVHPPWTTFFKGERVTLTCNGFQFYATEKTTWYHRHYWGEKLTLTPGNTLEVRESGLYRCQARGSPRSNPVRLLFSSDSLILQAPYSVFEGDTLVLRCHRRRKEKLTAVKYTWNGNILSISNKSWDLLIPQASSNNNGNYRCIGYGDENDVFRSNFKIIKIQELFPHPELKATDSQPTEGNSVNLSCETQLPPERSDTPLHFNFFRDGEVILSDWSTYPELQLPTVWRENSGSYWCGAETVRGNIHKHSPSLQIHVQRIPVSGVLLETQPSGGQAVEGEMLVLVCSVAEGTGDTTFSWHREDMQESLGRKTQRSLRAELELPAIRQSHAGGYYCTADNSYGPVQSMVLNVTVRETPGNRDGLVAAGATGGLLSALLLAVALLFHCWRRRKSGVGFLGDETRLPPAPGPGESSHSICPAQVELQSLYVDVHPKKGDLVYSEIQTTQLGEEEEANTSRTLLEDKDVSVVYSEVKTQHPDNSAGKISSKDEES
Description: as §1

[4] = molecular target: T4, IRTA2, full length transmembrane form with N-terminal myc tag, expressed on transfected CHO cells (human, UniProt Q96RD9 16-977); experiment: flow cytometry on transfected CHO cells, GMFI
T4 construct: Full length cDNA in CHO cells; also called human IRTA-2; not shown: myc tag at the N-terminus
T4 chain: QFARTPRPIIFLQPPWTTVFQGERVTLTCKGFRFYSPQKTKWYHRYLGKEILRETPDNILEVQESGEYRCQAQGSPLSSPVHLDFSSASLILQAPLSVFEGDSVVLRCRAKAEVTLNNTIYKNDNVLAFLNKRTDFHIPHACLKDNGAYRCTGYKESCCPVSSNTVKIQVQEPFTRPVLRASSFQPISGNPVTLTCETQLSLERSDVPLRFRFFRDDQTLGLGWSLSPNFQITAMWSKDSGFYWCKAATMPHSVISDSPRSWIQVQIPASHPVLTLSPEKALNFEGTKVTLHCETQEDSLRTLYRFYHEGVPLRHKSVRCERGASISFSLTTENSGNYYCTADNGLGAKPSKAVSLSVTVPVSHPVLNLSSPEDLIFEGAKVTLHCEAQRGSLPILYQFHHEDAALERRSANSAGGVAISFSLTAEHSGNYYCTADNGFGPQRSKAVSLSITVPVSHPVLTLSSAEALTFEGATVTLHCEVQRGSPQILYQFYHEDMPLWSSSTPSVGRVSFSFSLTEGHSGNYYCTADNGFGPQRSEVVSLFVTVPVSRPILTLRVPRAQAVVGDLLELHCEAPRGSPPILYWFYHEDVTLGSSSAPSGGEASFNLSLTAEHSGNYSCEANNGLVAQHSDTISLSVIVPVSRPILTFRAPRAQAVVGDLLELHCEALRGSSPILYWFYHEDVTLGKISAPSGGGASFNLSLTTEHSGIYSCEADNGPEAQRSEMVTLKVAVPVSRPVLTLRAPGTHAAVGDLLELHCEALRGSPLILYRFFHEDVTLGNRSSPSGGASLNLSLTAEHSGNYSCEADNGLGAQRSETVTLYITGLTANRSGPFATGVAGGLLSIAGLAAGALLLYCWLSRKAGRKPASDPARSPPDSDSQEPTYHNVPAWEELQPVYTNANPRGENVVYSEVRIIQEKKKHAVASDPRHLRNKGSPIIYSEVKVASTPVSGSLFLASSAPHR
Description: as §1

[5] = molecular target: T5, IRTA4, full length transmembrane form with N-terminal myc tag, expressed on transfected CHO cells (human, UniProt Q96LA5 20-508); experiment: flow cytometry on IRTA4-transfected CHO cells, antibody at 10 µg/ml, FITC anti-human IgG detection, GMFI
T5 construct: Full length cDNA in CHO cells; also called human IRTA-4; CHO line transfected with IRTA4; not shown: myc tag at the N-terminus
T5 sequence: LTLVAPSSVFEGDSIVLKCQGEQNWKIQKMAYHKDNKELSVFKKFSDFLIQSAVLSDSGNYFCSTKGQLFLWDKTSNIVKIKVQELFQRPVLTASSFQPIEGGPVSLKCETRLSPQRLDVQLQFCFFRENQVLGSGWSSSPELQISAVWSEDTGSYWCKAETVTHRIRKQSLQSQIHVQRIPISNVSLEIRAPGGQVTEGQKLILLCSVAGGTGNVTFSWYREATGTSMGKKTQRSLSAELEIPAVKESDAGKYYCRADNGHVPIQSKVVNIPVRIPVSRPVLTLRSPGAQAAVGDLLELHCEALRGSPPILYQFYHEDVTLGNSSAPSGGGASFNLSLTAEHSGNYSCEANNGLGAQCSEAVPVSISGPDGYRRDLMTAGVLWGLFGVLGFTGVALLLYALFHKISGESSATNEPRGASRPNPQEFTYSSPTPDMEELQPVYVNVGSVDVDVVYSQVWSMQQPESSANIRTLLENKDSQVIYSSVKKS
Description: as §1

[6] = molecular target: T6, IRTA4-C9 antigen (fusion protein composed of the extracellular domain of the IRTA4 linked to the carboxy … (human, UniProt P02699 340-348 (bovine entry))); experiment: Biacore SPR, antibody captured by anti-human IgG on CM5 chip, IRTA4-C9 flowed at 50-400 nM, 1:1 Langmuir fit
T6 construct: domain: carboxy terminal nine amino acids
T6 sequence: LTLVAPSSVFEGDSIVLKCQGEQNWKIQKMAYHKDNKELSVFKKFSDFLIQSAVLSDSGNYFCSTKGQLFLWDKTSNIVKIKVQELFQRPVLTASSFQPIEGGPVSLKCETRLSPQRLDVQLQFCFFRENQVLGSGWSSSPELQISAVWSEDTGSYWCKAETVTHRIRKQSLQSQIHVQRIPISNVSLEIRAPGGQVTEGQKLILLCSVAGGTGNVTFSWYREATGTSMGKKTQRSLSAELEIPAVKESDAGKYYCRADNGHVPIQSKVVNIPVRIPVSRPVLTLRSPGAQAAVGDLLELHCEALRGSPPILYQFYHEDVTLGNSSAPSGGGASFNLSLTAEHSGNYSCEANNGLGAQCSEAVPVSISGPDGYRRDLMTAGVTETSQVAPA
Protocol: Anti-IRTA4 antibodies were characterized for affinities and binding kinetics by Biacore analysis (Biacore AB, Uppsala, Sweden). Purified anti-IRTA4 monoclonal antibodies were captured by anti-human IgG antibody covalently linked to a CM5 chip (carboxy methyl dextran coated chip) via primary amines, using standard amine coupling chemistry and kit provided by Biacore. Binding was measured by flowing the IRTA4-C9 antigen (a fusion protein composed of the extracellular domain of the IRTA4 linked to the carboxy terminal nine amino acids of rhodopsin) in HBS EP buffer (provided by Biacore AB) at concentrations of 400, 300, 200, 100, and 50 nM at a flow rate of 20 μl/min. The antigen-antibody association kinetics was followed for 10 minutes and the dissociation kinetics was followed for 10 minutes. The association and dissociation curves were fit to a 1:1 Langmuir binding model using BIAevaluation software (Biacore AB).

Row | Binder | binding result [1] | binding result [2] | binding result [3] | binding result [4] | binding result [5] | Kd [6] [nM] | koff [6] [s⁻¹] | kon [6] [M⁻¹ s⁻¹]
1 | 13B1 human monoclonal antibody (antibody, V domains shown, Hybridoma-derived fully human IgG with kappa light chain from KM mice; also called anti-IRTA4 HuMAb 13B1) VH: QVQLVQSGAEVKKPGASVKVSCKASGYNFNSYDISWVRQAAGQGLEWMGWMNPNSGYTSYAQKFQGRVTMTWNTSISTAYMELSSLRSEDSAVYYCAREGIVGAIGWFDPWGQGTLVTVSS VL: DIQMTQSPSSVSASVGDRVTITCRASQGISSWLAWYQHKPGKAPKLLIYAASSLQSGVPSRFSGSGSGTDFTLTISSLQPEDFATYYCQQANSFPLTFGGGTKVEIK | no binding (tested: 10 µg/ml) | no binding (tested: 10 µg/ml) | no binding (tested: 10 µg/ml) | no binding (tested: 10 µg/ml) | binds | 3.48 | 0.000426 | 125000
2 | 9G11 human monoclonal antibody (antibody, V domains shown, Hybridoma-derived fully human IgG with kappa light chain from KM mice; also called anti-IRTA4 HuMAb 9G11) VH: QVQLVQSGAEVKKPGASVKVSCKASGYTFTSYAMHWVRQAPGQRLEWMGWINVGNGNTRYSQKFQGRVTITRDTSASTAYMELSSLRSEDTAVYYCAREGSNGWHEDFDYWGQGTLVTVSS VL: EIVLTQSPATLSLSPGERATLSCRASQSVSSYLAWYQQKPGQAPRLLIYDASNRATGIPARFSGSGSGTDFTLTISSLEPEDFAVYYCQQRSDWPPSLTFGGGTKVEIK | no binding (tested: 10 µg/ml) | no binding (tested: 10 µg/ml) | no binding (tested: 10 µg/ml) | no binding (tested: 10 µg/ml) | binds | 2.8 | 7.4e-05 | 26300
